Laboratory results taken from patent publication US20230002494A1 (SANYOU BIOPHARMACEUTICALS, published 2023).

Columns and labels:
[1] = molecular target: T1, mouse PD-L1 (full-length, on CHO-s cells) (mouse, UniProt Q9EP73 19-290); assay: FACS, mouse PD-L1-CHO cells
T1 construct: whole, on cells; also called mouse PD-L1-CHO

[2] = molecular target: T2, human PD-L1 (full-length, on cells) (human, UniProt Q9NZQ7 19-290); assay: FACS, human PD-L1-CHO cells
T2 construct: whole, on cells; Expressed on CHO-s cells; also called human PD-L1-CHO; PD-L1-CHO

[3] = molecular target: T3, rhesus monkey PD-L1 (full-length, on CHO-s cells) (rhesus monkey, UniProt F6VEW6 19-290); assay: FACS, monkey PD-L1-CHO cells
T3 construct: whole, on cells; also called monkey PD-L1-CHO
From the text: In order to evaluate the cross-reactivity of the VHH-Fc candidate antibodies to monkey PD-L1 and mouse PD-L1, an FACS method is used to detect the binding activity thereof to the mouse and rhesus monkey PD-L1 protein on cells.

[4] = molecular target: T2, human PD-L1 (full-length, on cells); assay: FACS on human PD-L1-CHO cells, PE anti-human IgG Fc
From the text: 1) collecting the cultured human PD-L1-CHO cells, centrifuging the collected cells at 300 g to remove the supernatant, resuspending the cells in a formulated FACS buffer and counting the cells, and adjusting the density of the cell suspension to 2×10⁶ cells/mL;

[5] = molecular target: T4, B7-H2 protein, Sino Biological 11559-H08H (UniProt O75144 19-258); assay: ELISA, plate coated with 2 µg/mL protein, anti-human IgG Fc-HRP, OD450; set-up: concentration or dose not given beside the values
T4 construct: Bought protein
T4 sequence (looked up): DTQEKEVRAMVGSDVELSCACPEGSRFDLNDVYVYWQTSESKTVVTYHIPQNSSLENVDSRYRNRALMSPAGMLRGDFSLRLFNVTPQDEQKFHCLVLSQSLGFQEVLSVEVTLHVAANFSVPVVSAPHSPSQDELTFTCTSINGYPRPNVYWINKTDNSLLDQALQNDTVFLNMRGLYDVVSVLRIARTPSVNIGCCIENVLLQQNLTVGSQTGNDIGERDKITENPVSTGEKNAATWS
Procedure: (§1) The specific method is as follows:
(§2) one day prior to the experiment, 30 μL of protein diluents such as B7-H1 (i.e., PDL1), B7-H2, B7-H3, B7-H4 and B7-DC (the above-mentioned proteins are all purchased from Sino Biological Co., Ltd., with Cat. Nos. 10084-HNAH, 11559-H08H, 11188-H08H, 10738-H08H and 10292-H08H-B, respectively) are added to an ELISA plate at a final concentration of 2 μg/mL, and incubated at 4° C. overnight; the next day, the ELISA plate is rinsed 3 times with PBST, then blocked with 150 μL of 5% PBSM, and incubated at room temperature for 2 hours; the ELISA plate is rinsed 3 times with PBST again, and then 30 μL of candidate antibody and control antibody diluents are added thereto, and the plate is incubated at room temperature for 1 hour; the plate is rinsed 3 times with PBST, and an anti-human IgG Fc-HRP second antibody diluted at 1:7000 is added thereto (30 μL/well), and the plate is incubated at room temperature for 30 minutes; the plate is rinsed 6 times with PBST, then TMB is added thereto for color development, and finally, 2M HCl is added to stop the reaction.

[6] = molecular target: T5, B7-H3 protein, Sino Biological 11188-H08H (UniProt Q5ZPR3 29-461); assay: as above; set-up: concentration or dose not given beside the values
T5 construct: Bought protein
T5 sequence (looked up): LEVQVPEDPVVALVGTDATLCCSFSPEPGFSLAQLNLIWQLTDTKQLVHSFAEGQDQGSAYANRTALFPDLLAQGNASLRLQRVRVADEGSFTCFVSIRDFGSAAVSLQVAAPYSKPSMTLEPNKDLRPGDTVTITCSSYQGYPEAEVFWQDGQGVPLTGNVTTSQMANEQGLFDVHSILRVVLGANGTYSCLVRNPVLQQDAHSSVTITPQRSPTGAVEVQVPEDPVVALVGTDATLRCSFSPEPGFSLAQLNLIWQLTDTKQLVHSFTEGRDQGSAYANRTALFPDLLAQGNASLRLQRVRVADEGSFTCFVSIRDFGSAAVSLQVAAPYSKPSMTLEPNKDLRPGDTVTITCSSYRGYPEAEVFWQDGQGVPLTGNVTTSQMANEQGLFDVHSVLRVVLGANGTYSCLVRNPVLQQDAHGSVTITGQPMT
Procedure: as §1, §2

[7] = molecular target: T6, B7-H4 protein, Sino Biological 10738-H08H (UniProt Q7Z7D3 25-258); assay: as above; set-up: concentration or dose not given beside the values
T6 construct: Bought protein
T6 sequence (looked up): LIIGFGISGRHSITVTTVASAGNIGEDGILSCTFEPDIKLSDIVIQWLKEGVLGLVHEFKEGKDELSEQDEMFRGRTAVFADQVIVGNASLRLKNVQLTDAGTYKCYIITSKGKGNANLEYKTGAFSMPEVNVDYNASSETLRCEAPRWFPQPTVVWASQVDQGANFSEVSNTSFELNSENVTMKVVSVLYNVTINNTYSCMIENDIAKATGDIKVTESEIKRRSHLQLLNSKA
Procedure: as §1, §2

[8] = molecular target: T7, B7-DC protein, Sino Biological 10292-H08H-B (UniProt Q9BQ51 20-219); assay: as above; set-up: concentration or dose not given beside the values
T7 construct: Bought protein
T7 sequence (looked up): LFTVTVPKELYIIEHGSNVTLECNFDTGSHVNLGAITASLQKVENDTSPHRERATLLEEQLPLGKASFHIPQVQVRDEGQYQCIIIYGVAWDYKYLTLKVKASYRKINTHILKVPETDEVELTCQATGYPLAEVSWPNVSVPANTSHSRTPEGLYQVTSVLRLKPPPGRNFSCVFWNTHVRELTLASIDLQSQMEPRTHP
Procedure: as §1, §2

[9] = molecular target: T2, human PD-L1 (full-length, on cells); assay: FACS competition, human PD-L1-CHO cells, competitor biotin-labeled CD80 1 µg/mL
[10] = molecular target: T2, human PD-L1 (full-length, on cells); assay: FACS competition, human PD-L1-CHO cells, competitor biotin-labeled PD-1-Fc 1 µg/mL

T2 sequence (Q9NZQ7 19-290): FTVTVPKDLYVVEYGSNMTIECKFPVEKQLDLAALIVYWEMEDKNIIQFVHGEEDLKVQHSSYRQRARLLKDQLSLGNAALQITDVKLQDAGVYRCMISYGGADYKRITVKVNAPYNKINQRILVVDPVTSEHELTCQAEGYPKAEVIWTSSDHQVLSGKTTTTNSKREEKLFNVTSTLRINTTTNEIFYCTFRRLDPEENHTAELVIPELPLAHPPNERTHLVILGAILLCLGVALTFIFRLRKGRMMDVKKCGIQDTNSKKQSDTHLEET
T1 sequence (Q9EP73 19-290): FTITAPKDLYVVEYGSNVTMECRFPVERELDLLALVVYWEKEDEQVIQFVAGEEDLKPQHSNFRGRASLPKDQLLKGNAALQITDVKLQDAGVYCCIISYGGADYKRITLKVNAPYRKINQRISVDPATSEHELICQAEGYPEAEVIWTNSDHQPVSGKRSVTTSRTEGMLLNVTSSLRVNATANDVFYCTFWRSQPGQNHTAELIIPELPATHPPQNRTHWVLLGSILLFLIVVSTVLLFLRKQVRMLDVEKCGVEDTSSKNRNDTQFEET

binding result [1]: binds
EC50 [2]: 0.39 µg/mL
EC50 [3]: 0.25 µg/mL
EC50 (read off the curve) [4]: ~0.1 µg/mL
IC50 [9]: 0.708 µg/mL
IC50 [10]: 0.41 µg/mL
B1: NB22D-21 chimeric VHH-Fc antibody (Fc fusion)
chain: EVQVQESGGGLVQAGGSLRLSCAHSRTDSNINGMHWYRQAPGKQRDWVGTIFIDGNTIVTDSVKGRFTISRDNAKNTLYLQMNTLKPEDTAVYFCAADVSGYGRAWGQGTQVTVSS
notes: also called parental antibody NB22D-21; parent molecule; not shown: human IgG1 Fc fragment, its N-terminus linked to the C-terminus of the VHH
binding result [5]: no binding (tested: 10.00 (no unit on the sheet))
binding result [6]: no binding (tested: 10.00 (no unit on the sheet))
binding result [7]: no binding (tested: 10.00 (no unit on the sheet))
binding result [8]: no binding (tested: 10.00 (no unit on the sheet))
